Assay results from article PMC10913813 (The Journal of Cell Biology, 2024).

Biological target: T1, 6xHis-SUMO-Gin4 (S. cerevisiae, UniProt Q12263 1-1142)
T1 sequence (looked up): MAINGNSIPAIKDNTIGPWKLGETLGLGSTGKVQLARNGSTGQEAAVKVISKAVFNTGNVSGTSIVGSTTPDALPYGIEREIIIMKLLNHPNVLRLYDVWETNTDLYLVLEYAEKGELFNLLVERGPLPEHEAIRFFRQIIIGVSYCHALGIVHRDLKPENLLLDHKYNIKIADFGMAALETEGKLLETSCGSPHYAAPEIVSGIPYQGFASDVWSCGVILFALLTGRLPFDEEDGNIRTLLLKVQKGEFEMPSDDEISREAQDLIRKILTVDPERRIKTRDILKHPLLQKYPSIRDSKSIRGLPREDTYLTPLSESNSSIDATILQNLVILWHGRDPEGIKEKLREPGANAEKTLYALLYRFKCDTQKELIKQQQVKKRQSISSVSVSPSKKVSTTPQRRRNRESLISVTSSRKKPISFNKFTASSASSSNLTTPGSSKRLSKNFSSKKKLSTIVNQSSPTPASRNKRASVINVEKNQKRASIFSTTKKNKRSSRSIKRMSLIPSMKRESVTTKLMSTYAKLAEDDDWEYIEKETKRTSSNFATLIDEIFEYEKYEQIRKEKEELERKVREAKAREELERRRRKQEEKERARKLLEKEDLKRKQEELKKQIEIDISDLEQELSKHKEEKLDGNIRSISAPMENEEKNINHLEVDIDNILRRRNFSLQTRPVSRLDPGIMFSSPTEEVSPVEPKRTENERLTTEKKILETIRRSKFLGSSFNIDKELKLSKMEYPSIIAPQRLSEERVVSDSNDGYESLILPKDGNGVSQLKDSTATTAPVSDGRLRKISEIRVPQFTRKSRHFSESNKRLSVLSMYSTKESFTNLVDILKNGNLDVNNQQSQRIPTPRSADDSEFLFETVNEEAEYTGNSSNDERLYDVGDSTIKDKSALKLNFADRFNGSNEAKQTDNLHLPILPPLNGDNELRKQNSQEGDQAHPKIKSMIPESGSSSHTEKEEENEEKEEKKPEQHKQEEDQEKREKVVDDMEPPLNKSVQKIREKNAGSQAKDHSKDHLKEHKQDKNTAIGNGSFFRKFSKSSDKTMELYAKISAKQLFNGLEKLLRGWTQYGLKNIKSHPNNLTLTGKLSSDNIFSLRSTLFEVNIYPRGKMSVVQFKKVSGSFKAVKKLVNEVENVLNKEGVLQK
Assay: pull-down

binding result: binds
B1: GST-Elm1^WT (enzyme, S. cerevisiae, UniProt P32801 1-640, looked up)
chain: MSPRQLIPTLIPEWAPLSQQSCIREDELDSPPITPTSQTSSFGSSFSQQKPTYSTIIGENIHTILDEIRPYVKKITVSDQDKKTINQYTLGVSAGSGQFGYVRKAYSSTLGKVVAVKIIPKKPWNAQQYSVNQVMRQIQLWKSKGKITTNMSGNEAMRLMNIEKCRWEIFAASRLRNNVHIVRLIECLDSPFSESIWIVTNWCSLGELQWKRDDDEDILPQWKKIVISNCSVSTFAKKILEDMTKGLEYLHSQGCIHRDIKPSNILLDEEEKVAKLSDFGSCIFTPQSLPFSDANFEDCFQRELNKIVGTPAFIAPELCHLGNSKRDFVTDGFKLDIWSLGVTLYCLLYNELPFFGENEFETYHKIIEVSLSSKINGNTLNDLVIKRLLEKDVTLRISIQDLVKVLSRDQPIDSRNHSQISSSSVNPVRNEGPVRRFFGRLLTKKGKKKTSGKGKDKVLVSATSKVTPSIHIDEEPDKECFSTTVLRSSPDSSDYCSSLGEEAIQVTDFLDTFCRSNESLPNLTVNNDKQNSDMKTDRSESSSHSSLKIPTPIKAMIRLKSSPKENGNRTHINCSQDKPSSPLMDRTVGKRTVNNSGARKLAHSSNILNFKAYINSEDSDIRETVEDVKTYLNFADNGQI
